From PMC7589614

Columns and labels:
[1] = molecular target: T1, tyrosinase (Bacillus megaterium (printed …, UniProt B2ZB02 1-297)); assay: porous silicon RIFTS (EOT) biosensor; apparent, mass-transfer limited; Hill fit R2 0.9731; Selection buffers listed (assay buffer and temperature not stated in material): AGR2 137 mM NaCl, 20 mM KCl, 10 mM Na2HPO4, 2 mM KH2PO4 pH 7.4; 6H7 50 mM K2HPO4
T1 sequence: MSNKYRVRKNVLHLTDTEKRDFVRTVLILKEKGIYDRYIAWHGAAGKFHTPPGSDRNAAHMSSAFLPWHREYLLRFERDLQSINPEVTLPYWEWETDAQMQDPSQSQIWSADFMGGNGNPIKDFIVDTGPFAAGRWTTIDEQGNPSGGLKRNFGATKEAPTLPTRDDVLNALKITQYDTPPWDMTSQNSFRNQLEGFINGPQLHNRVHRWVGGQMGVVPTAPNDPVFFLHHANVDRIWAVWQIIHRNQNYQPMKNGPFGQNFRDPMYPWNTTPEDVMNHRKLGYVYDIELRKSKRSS

[2] = molecular target: AGR2 (UniProt O95994 21-175); assay: porous silicon RIFTS (EOT) biosensor; apparent, mass-transfer limited; Hill fit R2 0.9951; Selection buffers listed (assay buffer and temperature not stated in material): AGR2 137 mM NaCl, 20 mM KCl, 10 mM Na2HPO4, 2 mM KH2PO4 pH 7.4; 6H7 50 mM K2HPO4
[3] = molecular target: protein A (Staphylococcus aureus, UniProt P02976 37-485); assay: porous silicon RIFTS (EOT) biosensor; apparent, mass-transfer limited; Hill fit R2 0.9177; Selection buffers listed (assay buffer and temperature not stated in material): AGR2 137 mM NaCl, 20 mM KCl, 10 mM Na2HPO4, 2 mM KH2PO4 pH 7.4; 6H7 50 mM K2HPO4
Chain of protein A (P02976 37-485): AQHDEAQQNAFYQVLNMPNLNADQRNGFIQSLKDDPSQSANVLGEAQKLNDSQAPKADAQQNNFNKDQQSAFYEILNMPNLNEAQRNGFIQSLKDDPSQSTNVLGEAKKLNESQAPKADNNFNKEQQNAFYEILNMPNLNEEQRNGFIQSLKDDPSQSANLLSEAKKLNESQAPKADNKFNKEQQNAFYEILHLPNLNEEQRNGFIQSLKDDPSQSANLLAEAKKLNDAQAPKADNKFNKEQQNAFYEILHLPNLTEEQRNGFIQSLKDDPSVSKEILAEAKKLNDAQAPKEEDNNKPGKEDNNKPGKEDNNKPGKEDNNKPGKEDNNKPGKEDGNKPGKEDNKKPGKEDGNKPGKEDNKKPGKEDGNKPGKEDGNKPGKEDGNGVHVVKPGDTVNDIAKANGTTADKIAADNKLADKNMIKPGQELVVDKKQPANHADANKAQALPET

Chain of AGR2 (O95994 21-175): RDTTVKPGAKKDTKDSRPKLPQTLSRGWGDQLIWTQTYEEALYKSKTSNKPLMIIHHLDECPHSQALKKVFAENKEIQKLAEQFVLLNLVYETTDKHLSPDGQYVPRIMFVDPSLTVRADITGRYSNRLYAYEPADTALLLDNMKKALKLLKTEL

## GCTATGGGTGGTCTGGTTGGGATTGGCCCCGGGAGCTGGC (ssDNA, 5'-amino) [anti-his tag aptamer 6H7]
[1]
  Kd: 31 ± 7 µM

## TCTCGGACGCGTGTGGTCGGGTGGGAGTTGTGGGGGGGGGTGGGAGGGTT (ssDNA, 5'-amino) [anti-AGR2 aptamer]
[2]
  Kd: 21 ± 1 µM

B1: anti-protein A aptamer PA#2/8[S1-58] (ssDNA)
DNA: ATACCAGCTTATTCAATTAGCAACATGAGGGGGATAGAGGGGGTGGGTTCTCTCGGCT
modifications: 3'-amino-C6
[3]
  Kd: 14 ± 1 µM
